# According to patent publication US20210238289A1:
# What was measured:
# [1] = molecular target: VLA receptors (alpha-4 integrin) of cynomolgus monkeys in vivo (cynomolgus monkey); assay: free receptor measured in cynomolgus monkeys after a single IV dose
# [2] = molecular target: VLA receptors (alpha-4 integrin) of cynomolgus monkeys in vivo (cynomolgus monkey); assay: model-estimated (direct Emax PKPD model) EC50 for the formation of drug-bound VLA in cynomolgus monkeys
# CD32a = CD32a (UniProt P12318); assay: solution competition SPR (Biacore)
# [3] = molecular target: VLA-4 on tumor cell lines (UniProt P13612); assay: flow cytometry on H929 cells (MM)
# [4] = molecular target: VLA-4 on tumor cell lines (UniProt P13612); assay: flow cytometry on JM1 cells (CLL)
# [5] = molecular target: VLA-4 on tumor cell lines (UniProt P13612); assay: flow cytometry on KG1 cells (AML)
# [6] = molecular target: VLA-4 on tumor cell lines (UniProt P13612); assay: flow cytometry on U266 cells (MM)
# [7] = molecular target: VLA-4 on tumor cell lines (UniProt P13612); assay: flow cytometry on HL60 cells (AML)
# [8] = molecular target: VLA-4 on tumor cell lines (UniProt P13612); assay: flow cytometry on Mec1 cells (CLL)
# [9] = molecular target: VLA-4 on tumor cell lines (UniProt P13612); assay: inhibition of adhesion of JM1 cells to VCAM1-Ig-coated wells
# [10] = molecular target: VLA-4 on tumor cell lines (UniProt P13612); assay: inhibition of adhesion of KG1 cells to VCAM1-Ig-coated wells
# [11] = molecular target: VLA-4 on tumor cell lines (UniProt P13612); assay: inhibition of adhesion of H929 cells to VCAM1-Ig-coated wells
# [12] = molecular target: VLA-4 on tumor cell lines (UniProt P13612); assay: inhibition of adhesion of HL60 cells to VCAM1-Ig-coated wells
# [13] = molecular target: VLA-4 on tumor cell lines (UniProt P13612); assay: inhibition of adhesion of Mec1 cells to VCAM1-Ig-coated wells
# [14] = molecular target: VLA-4 on tumor cell lines (UniProt P13612); assay: inhibition of adhesion of U266 cells to VCAM1-Ig-coated wells
# [15] = molecular target: VLA-4 on tumor cell lines (UniProt P13612); assay: inhibition of adhesion of KG1 cells to fibronectin-coated wells
# [16] = molecular target: VLA-4 on tumor cell lines (UniProt P13612); assay: inhibition of adhesion of H929 cells to fibronectin-coated wells
# [17] = molecular target: VLA-4 on tumor cell lines (UniProt P13612); assay: inhibition of adhesion of HL60 cells to fibronectin-coated wells
# [18] = molecular target: VLA-4 on tumor cell lines (UniProt P13612); assay: inhibition of adhesion of Mec1 cells to fibronectin-coated wells
# [19] = molecular target: VLA-4 on tumor cell lines (UniProt P13612); assay: inhibition of adhesion of U266 cells to fibronectin-coated wells
# [20] = molecular target: α4β1 (VLA-4) as used in the competition ELISAs (UniProt P13612); assay: competition ELISA; mixture of mouse HP1/2 with test mAb binding to integrin
# [21] = molecular target: α4β1 (VLA-4) as used in the competition ELISAs (UniProt P13612); assay: competition ELISA; integrin preincubated with test mAb, then murine HP1/2 as competing reagent
# Sequence of TYSABRI (natalizumab) (antibody) (VH): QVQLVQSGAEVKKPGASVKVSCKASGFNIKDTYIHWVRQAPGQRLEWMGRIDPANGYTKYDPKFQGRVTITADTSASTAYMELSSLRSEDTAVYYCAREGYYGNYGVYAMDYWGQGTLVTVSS
# Sequence of TYSABRI (natalizumab) (antibody) (VL): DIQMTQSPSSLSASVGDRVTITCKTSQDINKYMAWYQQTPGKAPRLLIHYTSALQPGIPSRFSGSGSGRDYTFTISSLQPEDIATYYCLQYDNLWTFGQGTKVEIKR
substance,measurement,setting,value
TYSABRI (natalizumab) (antibody),receptor occupancy,[1],> 90%
same,EC50,[2],6.4 ng/mL
EAG2379 (hu5c8 IgG1 T299E) (antibody),IC50,CD32a,1.28 mM
HuHP1/2 (antibody),EC50,[3],0.91 nM
same,EC50,[4],0.21 nM
same,EC50,[5],0.19 nM
same,EC50,[6],0.46 nM
same,EC50,[7],0.11 nM
same,EC50,[8],0.11 nM
same,IC50,[9],0.12 nM
same,IC50,[10],0.1 nM
same,IC50,[11],1.35 nM
same,IC50,[12],0.91 nM
same,IC50,[13],0.07 nM
same,IC50,[14],0.13 nM
same,IC50,[15],0.05 nM
same,IC50,[16],0.21 nM
same,IC50,[17],0.16 nM
same,IC50,[18],0.1 nM
same,IC50,[19],0.14 nM
same,IC50,[20],1.41 nM
same,IC50,[21],1.05 nM
